Tests used:
[1] = tested on: T1, HcdR2 (LuxR family regulator) (Streptomyces mobaraensis US-43), ORF:dfa86b54; test: competition; conditions: EMSA: 10 mM Tris-HCl, 50 mM KCl, 1 mM DTT, pH 7.5 (1x of 10x buffer), 20 fmol probe in 20 uL, 25-2000 nM protein, room temperature 20 min; native 5% gel, 0.5x …
T1 sequence: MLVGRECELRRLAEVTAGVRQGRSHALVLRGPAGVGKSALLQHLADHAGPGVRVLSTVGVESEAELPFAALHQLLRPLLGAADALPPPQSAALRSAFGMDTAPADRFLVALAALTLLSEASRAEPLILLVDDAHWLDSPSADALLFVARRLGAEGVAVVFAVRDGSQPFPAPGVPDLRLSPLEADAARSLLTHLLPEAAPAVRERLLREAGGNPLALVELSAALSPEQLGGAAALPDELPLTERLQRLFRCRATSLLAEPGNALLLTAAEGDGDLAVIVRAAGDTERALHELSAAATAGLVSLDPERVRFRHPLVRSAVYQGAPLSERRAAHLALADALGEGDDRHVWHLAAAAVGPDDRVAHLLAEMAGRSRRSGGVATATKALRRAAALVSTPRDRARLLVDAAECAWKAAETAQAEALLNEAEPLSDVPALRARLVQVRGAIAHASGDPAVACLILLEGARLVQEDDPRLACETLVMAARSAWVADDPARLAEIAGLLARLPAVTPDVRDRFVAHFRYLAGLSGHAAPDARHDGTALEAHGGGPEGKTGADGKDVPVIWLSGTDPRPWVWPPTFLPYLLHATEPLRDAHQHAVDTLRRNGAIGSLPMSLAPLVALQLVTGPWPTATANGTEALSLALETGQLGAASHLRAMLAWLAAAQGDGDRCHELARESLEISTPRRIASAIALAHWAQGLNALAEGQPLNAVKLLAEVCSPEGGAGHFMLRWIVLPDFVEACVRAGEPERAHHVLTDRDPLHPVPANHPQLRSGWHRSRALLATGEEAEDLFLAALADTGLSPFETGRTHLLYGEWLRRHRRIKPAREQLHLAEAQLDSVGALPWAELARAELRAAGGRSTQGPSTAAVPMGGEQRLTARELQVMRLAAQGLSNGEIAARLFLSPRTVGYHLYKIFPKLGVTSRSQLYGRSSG

[2] = tested on: T1, HcdR2 (LuxR family regulator) (Streptomyces mobaraensis US-43), ORF:dfa86b54; test: EMSA; conditions: EMSA: 10 mM Tris-HCl, 50 mM KCl, 1 mM DTT, pH 7.5 (1x of 10x buffer), 20 fmol probe in 20 uL, 25-2000 nM protein, room temperature 20 min; native 5% gel, 0.5x …

Row | Sequence | binding [1] | binding [2]
1 | CGCGCCCAGCGGCCAGGTGGGCCGTTGCGCCAGGCGGGCGGCCGCCACCCCCGCAGTGCCAGGGGCAGTCCGCCGCACAGCTCGGCCAGCCGTCGCGCAGC (double strand) [hcdR1p] | no binding | 
2 | CTCTTCGCGGGGAGAGAGCGGCCGGTCGCGGCACGGCGAGCCTATGAAGATCGACACGGCCGCCCCACCCCCTACGACCCCTACGAACCCCTGTCCCCTACCGGCGCGGCAGGGGACAGGGGTTCGTAGGGGTCGTAGGGGGTGGGGGGCCGCCGGACGATCTTCATAGGCTCGCTCTCGATCGGAGACGGCCCTCGCAGCCGTGTCCCCGGCAACCCGGACTTCTCGCGGACCGGCCGCCCCCAGGCCGACCCCCCTACTCGATCCACGACGAGAAAGAGGTT (double strand) [V2 Bp] | binds | 
3 | GATTCAGCCAAGTGACCCCGCAAGAAGCCTCGTTCGCGAACGGTCCCTGAGCCCGCGCCCGCGCCGCACCCGCGGACCATCCGCCGAACGGCCGGGCCGCCCGTACGGTCTGGAGAGCGCCACGGCGTGCGGGTCCCGGTGGTGGGCCACGGCGCGGCCGACCCGTCAGGTGTTTCCGGGAGGCCGCGCCGCGGAGGGCACGCACGTCCGTGGCGGGACCGGGGGACGGGAGACGGCGTGGCGCCGCGTCATGGTCGTCCGGCGCCTCGATGCCGTCACGGCGCAGGGCGGGCCCGCCGG (double strand) [hcdT-1p] |  | no binding
